The results in this text go back to publication PMC11500106, “Characterization of Medusavirus encoded histones reveals nucleosome-like structures and a unique linker histone”.

This data set addresses eH1.0 (Mus musculus, UniProt P10922 1-194). Briefly: fluorescence polarization; unit inferred from the titration (0-10 uM; fitted as EC50); FP: 20 mM Tris pH 7.5, 1 mM DTT, 1 mM EDTA, room temperature, 1 h, 10 nM DNA; reconstitution: salt-gradient dialysis 2 M to 50 mM NaCl. To be noted: protein: recombinant; label: 5' 6-FAM; only one strand printed (Results call it a 35-mer). (In general: Polarisation of emitted light reports the rotation of a fluorescent probe.)

Chain of eH1.0 (P10922 whole entry): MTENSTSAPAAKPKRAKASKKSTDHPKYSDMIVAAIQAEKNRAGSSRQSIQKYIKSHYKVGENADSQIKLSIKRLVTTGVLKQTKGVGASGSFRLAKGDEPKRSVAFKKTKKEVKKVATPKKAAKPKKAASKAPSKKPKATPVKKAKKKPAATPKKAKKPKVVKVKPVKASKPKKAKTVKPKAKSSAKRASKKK

B1: FP 25-mer DNA (mixed)
DNA: GCAGCTGGCACGACAGGTATGAATC
Turning to B1, the Kd (in general, a measure of binding affinity in units of concentration) came to 18.1 nM.
